Data set [1] concerns the target T1, DmDM15 (Drosophila melanogaster, UniProt Q9VAW5).
T1 construct: gene larp; C-terminal DM15 region; E. coli BL21(DE3); His6-MBP tag removed with TEV protease; monomer
The experiment in a line: differential scanning fluorimetry (SYPRO Orange). The format is binding. The following applies: 5 uM protein, 500 uM ligand; 50 mM Tris-HCl pH 8, 100 mM NaCl, 0.6 mM DTT, 10% glycerol. In general terms: Differential scanning fluorimetry follows unfolding on heating by fluorescence.

Data set [2] has as its target T2, HsDM15 (Homo sapiens, UniProt Q6PKG0).
T2 construct: gene LARP1; C-terminal DM15 region; E. coli BL21(DE3); His6-MBP tag removed with TEV protease; monomer; residues 796-941 used in simulation only
The experiment in a line: differential scanning fluorimetry (SYPRO Orange). The conditions noted are these: 5 uM protein, 500 uM ligand; 50 mM Tris-HCl pH 8, 100 mM NaCl, 0.6 mM DTT, 10% glycerol. The format is binding.

The next data set addresses T3, DrDM15 (Danio rerio, UniProt A0A8M9P457).
T3 construct: gene larp1; C-terminal DM15 region, residues 754-904; E. coli BL21(DE3); His6-MBP tag removed with TEV protease; Gly6 linker after TEV site; monomer
The experiment in a line: differential scanning fluorimetry (SYPRO Orange). The format is binding. The following applies: 5 uM protein, 500 uM ligand; 50 mM Tris-HCl pH 8, 100 mM NaCl, 0.6 mM DTT, 10% glycerol.

Another data set deals with DrDM15 (zebrafish) (UniProt F1R0U5). Briefly: EMSA. The conditions noted are these: 5' m7G cap (Vaccinia capping), EMSA: 20 mM Tris-HCl pH 8, 150 mM NaCl, 10% glycerol, 1 mM DTT, 0.5 ug tRNA, 1 ug BSA, pM RNA (95 C, snap cooled), native 7% PAGE, 0.5X TBE. For orientation: A gel shift assay detects complexes by their altered migration in electrophoresis.
The target of data set [3] is DmDM15 (fruit fly, UniProt A0A0B4K7Y7 1330-1481). The experiment in a line: EMSA; EMSA: 20 mM Tris-HCl pH 8, 150 mM NaCl, 10% glycerol, 1 mM DTT, 0.5 ug tRNA, 1 ug BSA, pM RNA (95 C, snap cooled), 0.5-1 h on ice; native 7% PAGE, 0.5X TBE. The conditions noted are these: protein: recombinant, tags: His6-MBP removed by TEV, label: 32P in cap.
Sequence of DmDM15 (fruit fly, UniProt A0A0B4K7Y7 1330-1481) (A0A0B4K7Y7 entry or part of it): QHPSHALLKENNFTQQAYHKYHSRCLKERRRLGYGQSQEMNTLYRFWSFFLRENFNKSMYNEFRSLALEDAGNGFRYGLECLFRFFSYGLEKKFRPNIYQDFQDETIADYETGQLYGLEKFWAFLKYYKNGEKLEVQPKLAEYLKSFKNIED
The target in data set [4] is T4, HsDM15 (Homo sapiens, UniProt Q6PKG0-3 796-946). The data set is described as above. The conditions noted are these: protein: recombinant, tags: His6-MBP removed by TEV, label: 32P in cap.
The target in data set [5] is T4, HsDM15. Briefly: EMSA; stated only as picomolar affinity; EMSA: 20 mM Tris-HCl pH 8, 150 mM NaCl, 10% glycerol, 1 mM DTT, 0.5 ug tRNA, 1 ug BSA, pM RNA (95 C, snap cooled), 0.5-1 h on ice; native 7% PAGE, 0.5X TBE. The following applies: protein: recombinant; tags: His6-MBP removed by TEV; label: 32P in cap.
[6] abbreviates: 5' end paired in one predicted fold.

The text below walks through data of paper PMC11349179, “Comparative analysis of the LARP1 C-terminal DM15 region through Coelomate evolution” (PLOS ONE, 2024).

In general, Kd refers to the equilibrium constant for the complex coming apart.

Where a chain is given by its changes, count along the chain named. Some results are limits rather than exact numbers.

T1 sequence (Q9VAW5 1330-1481): as the sequence (A0A0B4K7Y7 entry or part of it) above
T3 sequence (A0A8M9P457 778-928): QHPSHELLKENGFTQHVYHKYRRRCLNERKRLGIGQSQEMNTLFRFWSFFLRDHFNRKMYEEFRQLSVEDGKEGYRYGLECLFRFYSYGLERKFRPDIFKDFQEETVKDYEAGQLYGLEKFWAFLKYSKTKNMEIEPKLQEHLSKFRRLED

On to `C[n+]1cn([C@@H]2O[C@H](COP(=O)(O)OP(=O)(O)OP(=O)(O)O)[C@@H](O)[C@H]2O)c2nc(N)[nH]c(=O)c21` [m^7GTP], for which the Tm entry on DmDM15 [1], at HsDM15 [2] and at DrDM15 was “thermal stabilization of all three orthologs in the presence of a cap analog (Fig 3D)” in each case.

Take “CCUUCUCCCCGCUUAUCUCUUUGAGAUAAAUGCAUAUUUUUU [HsPABPC1_Stem, capped]”: in the data set with DrDM15 (zebrafish) (0.5-1 h on …), the Kd was found to be 6900 pM.

“CUUUUGCCAUUGUCAGCCGACGAAGUGCUUUAACCCAAACUA [DmRPL30 42-mer, capped]” came in with a Kd in the data set with DrDM15 (zebrafish) (stated only as picomolar affinity, 0.5-1 h on ice) of under 1000 pM.

“CCUCUUUUCCGCUUAUCUCUUUGAGAUAAAUGCAUAUUUUUU [HsRPS6_Stem, capped]” returned a Kd in the data set with DrDM15 (zebrafish) (0.5-1 h on …) of 7900 pM.

Consider “CCUUCUCCCCGGCGGUUAGUGCUGAGAGUGCGGAGUGUGUGC [HsPABPC1 42-mer, capped]”, for which, in the data set with DrDM15 (zebrafish) (0.5-1 h on …), the Kd was determined as 97000 pM.

In the case of “CCUCUUUUCCGUGGCGCCUCGGAGGCGUUCAGCUGCUUCAAG [HsRPS6 42-mer, capped]”, the Kd with DrDM15 (zebrafish) (0.5-1 h on …) turned out to be 10000 pM.

B1: HsPABPC1 42-mer, capped (structured_RNA)
RNA: CCUUCUCCCCGGCGGUUAGUGCUGAGAGUGCGGAGUGUGUGC
modifications: 5' m7G cap (Vaccinia capping)
Consider B1, for which the Kd with DmDM15 [3] (setting [6]) is 140 ± 0.02 nM; in the data set with HsDM15 [4] (setting [6]) it was 18 ± 0.06 nM.

B2: HsRPS6 42-mer, capped (structured_RNA)
RNA: CCUCUUUUCCGUGGCGCCUCGGAGGCGUUCAGCUGCUUCAAG
modifications: 5' m7G cap (Vaccinia capping)
As for B2, the Kd was 58 ± 0.02 nM with DmDM15 [3] (hairpin (predicted)) and 3.9 ± 0.2 nM in the data set with HsDM15 [4] (hairpin (predicted)).

B3: HsRPS6_Stem, capped (structured_RNA)
RNA: CCUCUUUUCCGCUUAUCUCUUUGAGAUAAAUGCAUAUUUUUU
modifications: 5' m7G cap (Vaccinia capping)
Consider B3, for which the Kd with DmDM15 [3] (hairpin (predicted)) is 29 ± 0.06 nM; with HsDM15 [4] (hairpin (predicted)), 1.9 ± 0.05 nM.

B4: HsPABPC1_Stem, capped (structured_RNA)
RNA: B3 RNA with C4U, U5C, U7C, U8C
modifications: 5' m7G cap (Vaccinia capping)
As to B4, the figures for the dissociation constant Kd with DmDM15 [3] (hairpin (predicted)) and with HsDM15 [4] (hairpin (predicted)) were 6.1 ± 0.03 nM and 1.5 ± 0.04 nM, respectively.

B5: DmRPL30 42-mer, capped (ssRNA)
RNA: CUUUUGCCAUUGUCAGCCGACGAAGUGCUUUAACCCAAACUA
modifications: 5' m7G cap (Vaccinia capping)
Take B5: the Kd in the data set with HsDM15 [5] is under 1 nM.
